Experimental data: doi:10.1101/2025.03.12.642038, “Structural, biophysical and biological analysis and characterisation of IRF4 DNA-binding domain mutations associated with multiple myeloma”
Changes are numbered by the printed parent chain.

T1: IRF4 DBD T95R (Homo sapiens, UniProt Q15306 20-132, T95R)
T1 sequence: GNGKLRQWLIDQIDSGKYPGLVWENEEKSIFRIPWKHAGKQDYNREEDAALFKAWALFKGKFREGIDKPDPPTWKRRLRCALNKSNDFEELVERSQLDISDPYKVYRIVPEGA

T2: IRF4 DBD wild-type (Homo sapiens, UniProt Q15306 20-132)
T2 sequence: T1 sequence with R76T

T3: IRF4 DBD T95K (Homo sapiens, UniProt Q15306 20-132, T95K)
T3 sequence: T1 sequence with R76K

T4: IRF4 DBD K123R (Homo sapiens, UniProt Q15306 20-132, K123R)
T4 sequence: T1 sequence with R76T, K104R

T5: IRF4 DBD S114R (Homo sapiens, UniProt Q15306 20-132, S114R)
T5 sequence: T1 sequence with R76T, S95R

T6: IRF4 DBD C99S (Homo sapiens, UniProt Q15306 20-132, C99S)
T6 sequence: T1 sequence with R76T, C80S

T7: IRF4 DBD D117A (Homo sapiens, UniProt Q15306 20-132, D117A)
T7 sequence: T1 sequence with R76T, D98A

T8: IRF4 DBD T95A (Homo sapiens, UniProt Q15306 20-132, T95A)
T8 sequence: T1 sequence with R76A

T9: IRF4 DBD S114N (Homo sapiens, UniProt Q15306 20-132, S114N)
T9 sequence: T1 sequence with R76T, S95N

B1: IRE hairpin (FAM) (structured_DNA)
DNA: CTTGGTTTCACTTCCTGCGTTTTCGCAGGAAGTGAAACCAAG
B2: IRE hairpin (biotin) (structured_DNA)
DNA: B1 DNA

Columns and labels:
[1] = target: T1, IRF4 DBD T95R; experiment: FP; FP: PBS + 0.05% Tween20, 5 nM DNA, 1 h, room temperature; SPR: Biacore S200, SA chip, protein 0.1-4500 nM, running buffer not given in material; errors are SD; conditions: protein: recombinant; tags: N-terminal His8-linker-His8-TEV, cleaved; label: 3' fluorescein (FAM); hairpin, TTTT loop
[2] = target: T2, IRF4 DBD wild-type; experiment: as above; conditions: protein: recombinant; tags: N-terminal His8-linker-His8-TEV, cleaved; label: 3' fluorescein (FAM); hairpin, TTTT loop
[3] = target: T3, IRF4 DBD T95K; experiment: as above; conditions: protein: recombinant; tags: N-terminal His8-linker-His8-TEV, cleaved; label: 3' fluorescein (FAM); hairpin, TTTT loop
[4] = target: T4, IRF4 DBD K123R; experiment: as above; conditions: protein: recombinant; tags: N-terminal His8-linker-His8-TEV, cleaved; label: 3' fluorescein (FAM); hairpin, TTTT loop
[5] = target: T5, IRF4 DBD S114R; experiment: as above; conditions: protein: recombinant; tags: N-terminal His8-linker-His8-TEV, cleaved; label: 3' fluorescein (FAM); hairpin, TTTT loop
[6] = target: T6, IRF4 DBD C99S; experiment: SPR steady state; FP: PBS + 0.05% Tween20, 5 nM DNA, 1 h, room temperature; SPR: Biacore S200, SA chip, protein 0.1-4500 nM, running buffer not given in material; errors are SD; conditions: protein: recombinant; label: 3' biotin; hairpin, TTTT loop
[7] = target: T2, IRF4 DBD wild-type; experiment: as above; conditions: protein: recombinant; tags: N-terminal His8-linker-His8-TEV, cleaved; label: 3' biotin; hairpin, TTTT loop
[8] = target: T7, IRF4 DBD D117A; experiment: as above; conditions: protein: recombinant; tags: N-terminal His8-linker-His8-TEV, cleaved; label: 3' biotin; hairpin, TTTT loop
[9] = target: T8, IRF4 DBD T95A; experiment: as above; conditions: protein: recombinant; tags: N-terminal His8-linker-His8-TEV, cleaved; label: 3' biotin; hairpin, TTTT loop
[10] = target: T9, IRF4 DBD S114N; experiment: as above; conditions: protein: recombinant; tags: N-terminal His8-linker-His8-TEV, cleaved; label: 3' biotin; hairpin, TTTT loop

Binder	Kd [1] [nM]	Kd [2] [nM]	Kd [3] [nM]	Kd [4] [nM]	Kd [5] [nM]	Kd [6] [nM]	Kd [7] [nM]	Kd [8] [nM]	Kd [9] [nM]	Kd [10] [nM]
B1	151 ± 72	565 ± 191	298 ± 154	143 ± 34	332 ± 162	–	–	–	–	–
B2	–	–	–	–	–	338 ± 173	402 ± 165	301 ± 87	186 ± 82	291 ± 79
